The assay concerns the target GST-DLG1 PDZ domain fusion protein (human homolog of Drosophila discs large protein AA275-477; PDZ domains 1-2 of 3) (human) [GST: P08515]. Nature of the assay: variant of G assay: 100 µM unlabeled 8-mer with 20 µM biotin-labeled AA2L CLASP-2 peptide on GST-DLG1.

Chain of GST-DLG1 PDZ domain fusion protein (human homolog of Drosophila discs large protein AA275-477; PDZ domains 1-2 of 3) (human) [GST: P08515] (P08515 1-218, tags or fused parts left off): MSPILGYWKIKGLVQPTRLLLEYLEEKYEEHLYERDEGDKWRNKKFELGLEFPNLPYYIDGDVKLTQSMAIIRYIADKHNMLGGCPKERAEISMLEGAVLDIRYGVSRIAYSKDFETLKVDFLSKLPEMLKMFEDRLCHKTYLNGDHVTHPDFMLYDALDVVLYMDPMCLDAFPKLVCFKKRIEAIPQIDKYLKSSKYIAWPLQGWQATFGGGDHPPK

Consider “eight amino acid CLASP-2 peptide MTSSSSVV (unlabeled competitor)”, for which the percent inhibition was above 50%.
